# Measurements as given in article PMC12693483, “A screen for synthetic genetic interactions with the Saccharomyces cerevisiae hrq1ΔN allele”.
# T1: Hrq1 (Saccharomyces cerevisiae, UniProt Q05549 1-1077)
# T1 sequence: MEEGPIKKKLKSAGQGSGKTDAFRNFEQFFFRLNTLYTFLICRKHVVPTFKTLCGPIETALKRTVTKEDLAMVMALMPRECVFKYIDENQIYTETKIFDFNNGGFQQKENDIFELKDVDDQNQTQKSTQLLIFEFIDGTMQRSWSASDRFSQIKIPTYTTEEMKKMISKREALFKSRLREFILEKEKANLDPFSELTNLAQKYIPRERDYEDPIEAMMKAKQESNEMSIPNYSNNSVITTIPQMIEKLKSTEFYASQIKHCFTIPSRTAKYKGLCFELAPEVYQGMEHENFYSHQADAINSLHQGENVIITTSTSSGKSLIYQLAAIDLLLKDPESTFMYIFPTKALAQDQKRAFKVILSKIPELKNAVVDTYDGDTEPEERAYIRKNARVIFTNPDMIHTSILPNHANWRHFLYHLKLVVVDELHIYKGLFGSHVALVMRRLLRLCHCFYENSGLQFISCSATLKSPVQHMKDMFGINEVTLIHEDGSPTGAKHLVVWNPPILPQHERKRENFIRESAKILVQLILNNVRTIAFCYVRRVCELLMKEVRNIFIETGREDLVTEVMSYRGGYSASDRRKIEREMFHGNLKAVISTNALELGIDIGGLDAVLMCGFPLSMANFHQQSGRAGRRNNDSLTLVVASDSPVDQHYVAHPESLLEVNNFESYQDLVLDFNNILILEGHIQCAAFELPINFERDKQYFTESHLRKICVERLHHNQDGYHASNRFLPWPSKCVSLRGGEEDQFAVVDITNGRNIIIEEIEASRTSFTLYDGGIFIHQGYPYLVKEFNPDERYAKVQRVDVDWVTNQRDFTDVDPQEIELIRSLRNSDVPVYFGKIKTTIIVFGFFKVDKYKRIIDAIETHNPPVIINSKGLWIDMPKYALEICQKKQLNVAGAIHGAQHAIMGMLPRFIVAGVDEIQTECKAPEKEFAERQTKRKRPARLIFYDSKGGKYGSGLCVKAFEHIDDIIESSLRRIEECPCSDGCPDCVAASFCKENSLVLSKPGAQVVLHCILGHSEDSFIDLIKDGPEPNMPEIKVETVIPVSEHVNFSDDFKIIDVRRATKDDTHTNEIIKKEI
# B1: poly(dT) 30mer (ssDNA)
# DNA: TTTTTTTTTTTTTTTTTTTTTTTTTTTTTT
# Target: T1, Hrq1
# Assay: EMSA; 0.2-5 nM protein; 7.5 mM MgOAc; no ATP stated; EMSA: 0.1 nM labelled DNA, 25 mM Na-HEPES pH 8.0, 5% glycerol, 50 mM NaOAc pH 7.6, 150 µM NaCl, 7.5 mM MgOAc, 0.01% Tween-20, 30 min at 30 °C; 8% 19:1 gel in 1x TBE
# Conditions: protein: recombinant; label: 5'-32P; single strand
binder,measurement,value
B1,binding result,binds
